Experimental data reported in patent US8173771B2, “Humanin receptor or humanin-like polypeptide receptor” (Keio Univeristy, priority 2005, dated 2012).

Legend:
rat IL-6R [1] = molecular target: T1, rat IL-6R (rat, UniProt P22273 20-462); assay: pull-down with HN-Sepharose 4B from lysates of transfected F11 cells, immunoblot
T1 construct: Overexpressed in F11 cells; stood in the cell lysate in the pull-down assay; also called IL-6 receptor; rat IL-6R (V6 tagged); not shown: printed as 'V6 tagged'
T1 sequence (looked up): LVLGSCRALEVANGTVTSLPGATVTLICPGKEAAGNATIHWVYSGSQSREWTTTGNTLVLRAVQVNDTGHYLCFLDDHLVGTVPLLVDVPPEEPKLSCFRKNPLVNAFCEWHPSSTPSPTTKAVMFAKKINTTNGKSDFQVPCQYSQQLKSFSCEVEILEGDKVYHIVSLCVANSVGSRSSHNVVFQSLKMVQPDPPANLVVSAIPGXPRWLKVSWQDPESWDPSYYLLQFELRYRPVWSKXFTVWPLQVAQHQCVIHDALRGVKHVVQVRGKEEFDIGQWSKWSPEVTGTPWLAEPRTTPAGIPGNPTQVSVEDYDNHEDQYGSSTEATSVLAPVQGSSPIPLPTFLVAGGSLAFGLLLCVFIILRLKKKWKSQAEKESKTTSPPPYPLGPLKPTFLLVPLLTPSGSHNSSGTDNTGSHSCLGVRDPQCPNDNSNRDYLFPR
Description: (§1) WSX-1, CNTF-R, and IL-6 were over-expressed in F11 cells and the pull down assay was made using the above 4B bead.
(§2) F11 cells (7×10^4/well in 6-well plates) were transfected with the plasmids encoding mycHis-WSX-1, V5-CNTF-R or rat IL-6R (V6 tagged). […] The beads were then reacted with a blocking buffer (0.2M glycine, pH 8.0) for 2 hrs at a room temperature, washed with the coupling buffer and stored at 4° C. for use in pull-down assay. For each pull-down assay, 20 μl of 1:1 slurry of Sepharose was used for 100 μl of the cell lysate.

[2] = molecular target: T2, Humanin receptor (HNR) overexpressed in F11 cells: human CNTF-R/WSX-1/gp130 (human, UniProt P26992 23-342; Q6UWB1 33-636; P40189 23-918); assay: cold competitor in binding assay (2), F11 cells transfected with human CNTF-R/WSX-1/gp130
T2 construct: whole, on cells; The three human subunits co-transfected into F11 cells, which also carry the endogenous receptor; also called both the CNTF receptor and WSX-1; not shown: C-terminal V5 tag; C-terminal myc-His tag
T2 sequence (P40189 23-918, one chain of several): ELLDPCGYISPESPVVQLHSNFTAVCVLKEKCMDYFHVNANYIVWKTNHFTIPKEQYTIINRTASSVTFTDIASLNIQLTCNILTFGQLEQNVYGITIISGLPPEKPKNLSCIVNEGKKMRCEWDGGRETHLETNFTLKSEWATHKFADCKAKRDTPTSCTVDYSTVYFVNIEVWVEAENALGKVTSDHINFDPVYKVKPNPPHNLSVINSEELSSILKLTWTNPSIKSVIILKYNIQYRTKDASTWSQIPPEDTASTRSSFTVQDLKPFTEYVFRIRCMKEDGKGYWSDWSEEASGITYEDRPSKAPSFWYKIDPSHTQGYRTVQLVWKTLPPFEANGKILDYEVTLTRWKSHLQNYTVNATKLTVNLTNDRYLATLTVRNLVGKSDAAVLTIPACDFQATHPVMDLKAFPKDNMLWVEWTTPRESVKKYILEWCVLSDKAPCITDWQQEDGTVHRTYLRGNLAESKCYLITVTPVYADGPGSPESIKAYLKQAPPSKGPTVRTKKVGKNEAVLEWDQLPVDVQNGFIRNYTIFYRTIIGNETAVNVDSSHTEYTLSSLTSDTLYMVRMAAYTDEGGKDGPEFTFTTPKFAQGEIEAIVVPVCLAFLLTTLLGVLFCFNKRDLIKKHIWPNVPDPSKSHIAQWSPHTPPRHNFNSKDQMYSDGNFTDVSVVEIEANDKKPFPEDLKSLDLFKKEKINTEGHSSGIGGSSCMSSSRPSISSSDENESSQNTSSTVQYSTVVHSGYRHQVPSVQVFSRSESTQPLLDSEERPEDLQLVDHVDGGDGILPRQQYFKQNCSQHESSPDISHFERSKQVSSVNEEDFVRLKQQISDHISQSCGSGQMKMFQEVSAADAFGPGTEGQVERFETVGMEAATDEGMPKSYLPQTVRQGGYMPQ
Description: A) F11 cells were seeded on 96-well plates coated with poly-L-lysine (7 ×10^3 cells/well). […] On the other hand, F11 cells were transfected with 0.5 μg of pcDNA3.1/GS-human CNTF-R, pEF1/MycHis-human WSX-1, and 1.0 μg of pCAG-human gp130. At 24 hrs after the transfection, the cells were re-seeded on 96-well plates coated with poly-L-lysine (7 ×10^3 cells/well).
F11 cells (7×10^4/well in 6-well plates) were replated into 96-well plates (7×10^3 cells/well) at 24 hrs after transfection with indicated amounts of the plasmids encoding mycHis-WSX or V5-CNTF-R, and with PCAG-human gp130 if required. […] After 6 hrs incubation, they were fixed with 4% paraformaldehyde in PBS for 30 min. After washing with PBS, cells were stained with FITC-conjugated avidin (Molecularprobe, Eugene, Oreg., USA). Immunofluorescence intensity was measured (excitation=485 nm, emission=535 nm) with a spectrofluorometer (Wallac1420 ARVOsx Multi Label Counter). Immunohistochemical analysis was done with a laser-scanning, confocal microscope LSM (Carl Zeiss, Germany).

[3] = molecular target: T3, C-terminally V5-tagged human CNTF-R (V5-CNTF-R) (human, UniProt P26992 23-342); assay: pull-down with HNA-Sepharose 4B from lysates of transfected F11 cells, immunoblot
T3 construct: whole, on cells; in the pull-down and co-immunoprecipitation it stood in cell lysates; also called human CNTF receptor; CNTF receptor alpha chain; not shown: C-terminal V5 tag
T3 sequence (looked up): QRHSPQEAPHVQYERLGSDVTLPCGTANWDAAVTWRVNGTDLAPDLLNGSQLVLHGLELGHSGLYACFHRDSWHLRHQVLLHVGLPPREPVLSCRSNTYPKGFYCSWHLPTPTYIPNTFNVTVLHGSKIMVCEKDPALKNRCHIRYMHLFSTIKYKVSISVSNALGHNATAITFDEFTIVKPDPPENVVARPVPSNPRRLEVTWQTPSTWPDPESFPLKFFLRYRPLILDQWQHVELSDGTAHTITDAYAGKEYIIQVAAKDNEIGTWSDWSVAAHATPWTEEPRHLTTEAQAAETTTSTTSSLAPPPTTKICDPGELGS
Description: as §1, §2

rat IL-6R [4] = molecular target: T1, rat IL-6R; assay: as above
Description: as §1, §2

[5] = molecular target: T4, C-terminally myc-tagged human WSX-1 (mycHis-WSX-1) (human, UniProt Q6UWB1 33-636); assay: as above
T4 construct: whole, on cells; in the pull-down and co-immunoprecipitation it stood in cell lysates; also called myc-WSX-1; IL-27 receptor; not shown: C-terminal myc-His tag of the pEF-mycHis vector
T4 sequence (looked up): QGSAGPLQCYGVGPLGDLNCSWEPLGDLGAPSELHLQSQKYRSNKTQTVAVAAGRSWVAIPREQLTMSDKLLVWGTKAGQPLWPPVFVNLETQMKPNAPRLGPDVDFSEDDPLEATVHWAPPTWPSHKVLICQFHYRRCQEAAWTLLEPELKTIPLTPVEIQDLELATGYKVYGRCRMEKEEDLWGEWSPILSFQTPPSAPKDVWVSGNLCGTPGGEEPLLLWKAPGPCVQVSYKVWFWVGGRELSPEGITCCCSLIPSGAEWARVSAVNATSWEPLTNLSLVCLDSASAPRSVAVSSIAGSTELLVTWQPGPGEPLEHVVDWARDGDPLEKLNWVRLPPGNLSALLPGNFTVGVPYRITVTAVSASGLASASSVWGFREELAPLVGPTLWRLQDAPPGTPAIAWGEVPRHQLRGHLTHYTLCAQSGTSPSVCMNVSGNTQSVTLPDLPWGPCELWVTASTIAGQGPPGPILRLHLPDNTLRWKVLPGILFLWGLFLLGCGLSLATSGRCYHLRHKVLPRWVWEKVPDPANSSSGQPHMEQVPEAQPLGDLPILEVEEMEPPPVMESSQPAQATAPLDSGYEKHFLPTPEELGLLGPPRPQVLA
Description: as §1, §2

[6] = test system: primary cortical neurons (PCNs); assay: Aβ neurotoxicity in primary cortical neurons, WST-8 / Calcein / LDH; format: cell-based, mouse
Method in brief: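 Primary cortical neurons from E14 ICR mice, in DMEM with N2 supplement, received 25 μM Aβ(1-42) on day 4 in vitro together with HN or cytokines, with or without soluble receptors or neutralizing antibodies. Viability was read by WST-8 or Calcein at 72 h, and mortality by LDH or Trypan blue.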

PCN cells = molecular target: T5, PCN cells (Mus musculus, UniProt O70394+O88507); assay: Immunofluorescence-based binding assay (2) on PCN, competition with unlabeled cytokines; conditions: similar range as IL-27; 10 nM biotin-HNG
T5 construct: endogenous in cells; host or cells: mouse primary cortical neurons (PCN), E14 ICR mice
T5 sequence (O70394 25-623): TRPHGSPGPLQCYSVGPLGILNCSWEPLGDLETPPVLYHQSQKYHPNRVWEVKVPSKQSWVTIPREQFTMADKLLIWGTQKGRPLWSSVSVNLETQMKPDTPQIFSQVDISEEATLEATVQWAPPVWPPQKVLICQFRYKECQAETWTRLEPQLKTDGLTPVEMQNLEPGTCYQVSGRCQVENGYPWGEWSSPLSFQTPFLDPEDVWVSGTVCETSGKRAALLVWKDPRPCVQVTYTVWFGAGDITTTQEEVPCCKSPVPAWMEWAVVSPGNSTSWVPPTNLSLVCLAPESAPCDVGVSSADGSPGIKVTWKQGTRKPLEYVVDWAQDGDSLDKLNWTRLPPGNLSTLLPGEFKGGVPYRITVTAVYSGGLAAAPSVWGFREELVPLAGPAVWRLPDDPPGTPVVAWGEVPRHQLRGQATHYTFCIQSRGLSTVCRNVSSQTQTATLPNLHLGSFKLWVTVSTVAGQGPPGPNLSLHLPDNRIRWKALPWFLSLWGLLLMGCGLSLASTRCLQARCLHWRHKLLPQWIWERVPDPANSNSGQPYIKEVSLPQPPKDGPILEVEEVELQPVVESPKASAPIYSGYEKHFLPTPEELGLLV
T5 sequence (O88507 23-342 limits assumed): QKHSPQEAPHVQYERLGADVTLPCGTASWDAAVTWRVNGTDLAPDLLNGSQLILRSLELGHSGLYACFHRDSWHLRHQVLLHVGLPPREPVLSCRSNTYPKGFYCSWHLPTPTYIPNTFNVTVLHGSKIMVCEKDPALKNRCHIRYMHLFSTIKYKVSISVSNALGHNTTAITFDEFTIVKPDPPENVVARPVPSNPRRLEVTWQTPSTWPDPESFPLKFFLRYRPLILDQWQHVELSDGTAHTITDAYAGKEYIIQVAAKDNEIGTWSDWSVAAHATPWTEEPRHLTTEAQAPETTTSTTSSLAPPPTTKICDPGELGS
T5 sequence (Q00560 23-917 partner): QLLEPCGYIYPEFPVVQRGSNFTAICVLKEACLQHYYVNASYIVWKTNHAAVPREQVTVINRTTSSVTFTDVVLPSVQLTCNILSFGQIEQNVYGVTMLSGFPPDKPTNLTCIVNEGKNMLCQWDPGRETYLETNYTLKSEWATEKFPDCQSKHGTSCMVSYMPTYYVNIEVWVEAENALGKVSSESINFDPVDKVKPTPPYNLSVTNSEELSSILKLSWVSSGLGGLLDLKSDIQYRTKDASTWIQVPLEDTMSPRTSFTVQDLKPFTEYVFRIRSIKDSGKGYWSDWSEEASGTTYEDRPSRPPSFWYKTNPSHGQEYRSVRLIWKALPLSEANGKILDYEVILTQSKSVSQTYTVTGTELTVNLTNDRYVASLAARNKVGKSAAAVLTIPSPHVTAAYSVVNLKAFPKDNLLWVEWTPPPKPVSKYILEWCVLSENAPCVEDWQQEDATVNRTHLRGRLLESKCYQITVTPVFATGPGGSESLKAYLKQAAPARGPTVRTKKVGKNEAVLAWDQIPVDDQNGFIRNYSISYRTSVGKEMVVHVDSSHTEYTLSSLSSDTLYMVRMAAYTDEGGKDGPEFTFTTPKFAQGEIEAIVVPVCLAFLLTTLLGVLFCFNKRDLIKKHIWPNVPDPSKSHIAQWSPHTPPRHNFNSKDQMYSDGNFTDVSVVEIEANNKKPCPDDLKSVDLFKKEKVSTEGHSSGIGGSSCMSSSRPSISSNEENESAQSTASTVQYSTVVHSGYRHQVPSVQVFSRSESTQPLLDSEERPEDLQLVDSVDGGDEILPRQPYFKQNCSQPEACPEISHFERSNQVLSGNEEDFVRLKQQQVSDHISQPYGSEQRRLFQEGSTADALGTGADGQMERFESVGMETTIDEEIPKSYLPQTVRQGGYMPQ
Description: After 6 hrs incubation, they were fixed with 4% paraformaldehyde in PBS for 30 min. After washing with PBS, cells were stained with FITC-conjugated avidin (Molecularprobe, Eugene, Oreg., USA). Immunofluorescence intensity was measured (excitation=485 nm, emission=535 nm) with a spectrofluorometer (Wallac1420 ARVOsx Multi Label Counter). Immunohistochemical analysis was done with a laser-scanning, confocal microscope LSM (Carl Zeiss, Germany).

B1: Humanin (HN) (peptide)
peptide: MAPRGFSCLLLLTSEIDLPVKRRA
notes: Synthetic 24-residue peptide; elsewhere it was used free and unlabeled; also called synthetic Humanin
B1: no binding (rat IL-6R [1]); binds [2].

B2: C8A-Humanin (HNA) (peptide)
peptide: MAPRGFSALLLLTSEIDLPVKRRA
notes: Synthetic peptide, HN mutant with null activity used as negative control; also called C8A-HN
B2: no binding [3]; no binding (rat IL-6R [4]); no binding [5].

B3: IL-6: interleukin-6, recombinant cytokine (protein, UniProt P20607 25-211, looked up)
Interleukin-6: FPTSQVRRGDFTEDTTHNRPVYTTSQVGGLITYVLREILEMRKELCNGNSDCMNSDDALSENNLKLPEIQRNDGCFQTGYNQEICLLKICSGLLEFRFYLEFVKNNLQDNKKDKARVIQSNTETLVHIFKQEIKDSYKIVLPTPTSNALLMEKLESQKEWLRTKTIQLILKALEEFLKVTMRSTRQT
B3 was tested, and the “mimicry of HN in neuroprotection against neuronal cell death by Aβ” value ([6]; cytokine 100 ng/ml with its soluble receptor (sIL-6R or soluble CNTF receptor) 100 ng/ml) was “completely mimicked HN”, the “inhibition of neurotoxicity by Aβ” value ([6]; cytokine alone, physiological levels (up to 100 ng/ml), 25 μM Aβ) was “did not inhibit” and the “inhibition of the binding of HN to PCN” value (PCN cells) was “did not show such effect”.
